First the molecules themselves.
B2: WDR91-His6 (natural protein)
chain: MAEAVERTDELVREYLLFRGFTHTLRQLDAEIKADKEKGFRVDKIVDQLQQLMQVYDLAALRDYWSYLERRLFSRLEDIYRPTIHKLKTSLFRFYLVYTIQTNRNDKAQEFFAKQATELQNQAEWKDWFVLPFLPSPDTNPTFATYFSRQWADTFIVSLHNFLSVLFQCMPVPVILNFDAECQRTNQVQEENEVLRQKLFALQAEIHRLKKEEQQPEEEEALVQHKLPPYVSNMDRLGDSELAMVCSQRNASLSQSPRVGFLSSLLPQSKKSPSRLSPAQGPPQPQSSAKKESFGGQGTKGKDPTSGAKDGKSLLSGLATGESGWSQHRQRRLQDHGKERKELFSTTTSQCAEKKPEASGPEAEPCPELHTEPVEPLTRASSAGPEGGGVRPEQPFIVLGQEEYGEHHSSIMHCRVDCSGRRVASLDVDGVIKVWSFNPIMQTKASSISKSPLLSLEWATKRDRLLLLGSGVGTVRLYDTEAKKNLCEININDNMPRILSLACSPNGASFVCSAAAPSLTSQVDFSAPDIGSKGMNQVPGRLLLWDTKTMKQQLQFSLDPEPIAINCTAFNHNGNLLVTGAADGVIRLFDMQQHECAMSWRAHYGEVYSVEFSYDENTVYSIGEDGKFIQWNIHKSGLKVSEYSLPSDATGPFVLSGYSGYKQVQVPRGRLFAFDSEGNYMLTCSATGGVIYKLGGDEKVLESCLSLGGHRAPVVTVDWSTAMDCGTCLTASMDGKIKLTTLLAHKA

What all share (assay): pull-down
The target of the assay “WDR91-His6” is B2.
For a further assay, the target named is T1, His6-WDR91(392-747) (UniProt A4D1P6 392-747).
T1 sequence: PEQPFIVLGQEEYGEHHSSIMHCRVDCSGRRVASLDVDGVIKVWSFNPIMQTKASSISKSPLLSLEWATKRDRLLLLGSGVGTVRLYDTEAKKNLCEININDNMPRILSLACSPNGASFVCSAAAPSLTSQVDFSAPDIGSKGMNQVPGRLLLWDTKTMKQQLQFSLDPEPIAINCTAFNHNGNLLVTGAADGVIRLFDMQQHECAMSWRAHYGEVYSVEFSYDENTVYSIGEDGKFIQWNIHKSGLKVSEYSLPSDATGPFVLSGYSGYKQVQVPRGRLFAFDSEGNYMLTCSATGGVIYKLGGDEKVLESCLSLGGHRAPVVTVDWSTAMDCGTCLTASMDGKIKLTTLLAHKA

The target in the next assay is GST-SNX27 (UniProt Q96L92 1-541).
The target of another assay is GST-VPS35 (UniProt Q96QK1 1-796).

B1: GST-SNX27(PX) (domain or fragment)
chain: EKQAVPISVPRYKHVEQNGEKFVVYNVYMAGRQLCSKRYREFAILHQNLKREFANFTFPRLPGKWPFSLSEQQLDARRRGLEEYLEKVCSIRVIGESDIMQEFLSESDENYNGVS
Consider B1, for which the binding result in the assay with WDR91-His6 and with His6-WDR91(392-747) was “binds” in each case. In the case of B2, the binding result in the assay with GST-SNX27 and in the assay with GST-VPS35 was “binds” in each case.

B3: GST-SNX2 (natural protein)
chain: MAAEREPPPLGDGKPTDFEDLEDGEDLFTSTVSTLESSPSSPEPASLPAEDISANSNGPKPTEVVLDDDREDLFAEATEEVSLDSPEREPILSSEPSPAVTPVTPTTLIAPRIESKSMSAPVIFDRSREEIEEEANGDIFDIEIGVSDPEKVGDGMNAYMAYRVTTKTSLSMFSKSEFSVKRRFSDFLGLHSKLASKYLHVGYIVPPAPEKSIVGMTKVKVGKEDSSSTEFVEKRRAALERYLQRTVKHPTLLQDPDLRQFLESSELPRAVNTQALSGAGILRMVNKAADAVNKMTIKMNESDAWFEEKQQQFENLDQQLRKLHVSVEALVCHRKELSANTAAFAKSAAMLGNSEDHTALSRALSQLAEVEEKIDQLHQEQAFADFYMFSELLSDYIRLIAAVKGVFDHRMKCWQKWEDAQITLLKKREAEAKMMVANKPDKIQQAKNEIREWEAKVQQGERDFEQISKTIRKEVGRFEKERVKDFKTVIIKYLESLVQTQQQLIKYWEAFLPEAKAIA
In the case of B3, the binding result with WDR91-His6 is “binds”.

(Values after publication PMC9531996 (The Journal of Cell Biology, 2022).)
